In patent US20210228731A1 (Novartis, published 2021):
Where a chain is given by its changes, count along the chain named.

T1: Cynomolgus monkey cKIT D1-5 (cynomolgus monkey, UniProt P10721 26-524 (human entry))
T1 construct: also called cyno cKIT ECD
T1 chain: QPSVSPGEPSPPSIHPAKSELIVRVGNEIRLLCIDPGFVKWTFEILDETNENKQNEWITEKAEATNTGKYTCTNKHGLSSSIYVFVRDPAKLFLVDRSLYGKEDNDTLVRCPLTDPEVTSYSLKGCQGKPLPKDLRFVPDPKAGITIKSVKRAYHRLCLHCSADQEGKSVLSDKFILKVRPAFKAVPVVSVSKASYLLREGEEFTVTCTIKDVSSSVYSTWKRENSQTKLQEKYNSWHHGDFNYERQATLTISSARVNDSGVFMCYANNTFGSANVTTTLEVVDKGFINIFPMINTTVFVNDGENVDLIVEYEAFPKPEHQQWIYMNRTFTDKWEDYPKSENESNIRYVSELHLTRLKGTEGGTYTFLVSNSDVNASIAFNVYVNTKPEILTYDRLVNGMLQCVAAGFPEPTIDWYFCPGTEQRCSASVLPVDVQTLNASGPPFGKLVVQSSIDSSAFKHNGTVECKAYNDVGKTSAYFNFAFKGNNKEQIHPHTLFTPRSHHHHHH

T2: Rat cKIT D1-5, C-terminal mFc (rat)
T2 construct: also called rat cKIT-mFc
T2 chain: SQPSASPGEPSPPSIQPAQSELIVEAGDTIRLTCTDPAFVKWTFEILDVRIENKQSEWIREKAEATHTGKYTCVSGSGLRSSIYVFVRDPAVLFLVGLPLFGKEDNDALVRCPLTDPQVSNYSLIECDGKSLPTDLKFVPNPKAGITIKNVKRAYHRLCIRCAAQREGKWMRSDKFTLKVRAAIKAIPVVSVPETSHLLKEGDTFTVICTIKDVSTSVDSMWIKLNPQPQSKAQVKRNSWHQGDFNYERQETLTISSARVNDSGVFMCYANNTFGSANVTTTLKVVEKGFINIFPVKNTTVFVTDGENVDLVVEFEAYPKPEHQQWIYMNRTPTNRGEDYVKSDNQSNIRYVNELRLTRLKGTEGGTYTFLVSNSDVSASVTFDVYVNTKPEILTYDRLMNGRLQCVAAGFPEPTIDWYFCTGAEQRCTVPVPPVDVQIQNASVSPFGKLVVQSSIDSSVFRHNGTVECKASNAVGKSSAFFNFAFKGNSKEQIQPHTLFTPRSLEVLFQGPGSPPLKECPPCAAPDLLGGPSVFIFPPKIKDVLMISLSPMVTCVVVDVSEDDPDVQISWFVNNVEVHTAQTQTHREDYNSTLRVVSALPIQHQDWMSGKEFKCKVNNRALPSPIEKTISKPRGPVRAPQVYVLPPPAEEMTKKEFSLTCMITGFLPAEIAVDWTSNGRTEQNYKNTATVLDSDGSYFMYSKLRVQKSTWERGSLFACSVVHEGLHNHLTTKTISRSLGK

T3: Mouse cKIT ECD, C-terminal 6x His (Sino Biological Inc, catalog number 50530-M08H) (mouse, UniProt P05532 25-527)
T3 construct: extracellular domain
T3 sequence: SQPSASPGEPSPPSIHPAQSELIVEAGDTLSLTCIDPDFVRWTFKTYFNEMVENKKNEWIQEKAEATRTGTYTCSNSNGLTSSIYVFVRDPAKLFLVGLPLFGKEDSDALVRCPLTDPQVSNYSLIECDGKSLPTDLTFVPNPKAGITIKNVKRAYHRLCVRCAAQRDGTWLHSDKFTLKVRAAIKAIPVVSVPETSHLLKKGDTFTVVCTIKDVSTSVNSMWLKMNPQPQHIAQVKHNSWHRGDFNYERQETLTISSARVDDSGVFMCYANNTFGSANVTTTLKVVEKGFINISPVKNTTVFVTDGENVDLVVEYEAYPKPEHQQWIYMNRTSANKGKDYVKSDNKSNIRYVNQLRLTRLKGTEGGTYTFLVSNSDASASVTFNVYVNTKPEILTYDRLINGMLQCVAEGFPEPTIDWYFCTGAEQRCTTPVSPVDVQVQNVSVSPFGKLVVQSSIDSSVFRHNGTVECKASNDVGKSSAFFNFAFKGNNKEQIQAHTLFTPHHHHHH

B1: Anti-cKIT Ab1 (antibody, human IgG1, kappa, V domains shown)
VH: QVQLVQSGAEVKKPGSSVKVSCKASGGTFSSYAISWVRQAPGQGLEWMGVIFPAEGAPGYAQKFQGRVTITADESTSTAYMELSSLRSEDTAVYYCARGGYISDFDVWGQGTLVTVSS
VL: DIQMTQSPSSLSASVGDRVTITCRASQSISNYLAWYQQKPGKAPKLLIYDASSLQSGVPSRFSGSGSGTDFTLTISSLQPEDFATYYCQQYYYESITFGQGTKVEIKR
notes: Full-length human IgG1, kappa light chain
B2: Anti-cKIT Ab2 (antibody, human IgG1, kappa, V domains shown)
VH: QVQLVQSGAEVKKPGSSVKVSCKASGGTFSSHALSWVRQAPGQGLEWMGGIIPSFGTADYAQKFQGRVTITADESTSTAYMELSSLRSEDTAVYYCARGLYDFDYWGQGTLVTVSS
VL: B1 VL with S28D, N31Q, Y32D, T85V, E94L, S95P, I96S
notes: as for B1
B3: Anti-cKIT Ab3 (antibody, human IgG1, kappa, V domains shown)
VH: B1 VH with V50T, F52G, A54F, A57Q, G59R
VL: B1 VL
notes: as for B1
B4: Anti-cKIT Ab5 (antibody, human IgG1, lambda, V domains shown)
VH: QVQLVQSGAEVKKPGESLKISCKGSGYSFTNYWIAWVRQMPGKGLEWMGIIYPSNSYTLYSPSFQGQVTISADKSISTAYLQWSSLKASDTAMYYCARVPPGGSISYPAFDHWGQGTLVTVSS
VL: DIELTQPPSVSVSPGQTASITCSGDNIGSIYASWYQQKPGQAPVLVIYRDNKRPSGIPERFSGSNSGNTATLTISGTQAEDEADYYCSVTDMEQHSVFGGGTKLTVLG
notes: Full-length human IgG1, lambda light chain
B5: Anti-cKIT Ab4 (antibody, human IgG1, lambda, V domains shown)
VH: QVQLQQSGPGLVKPSQTLSLTCAISGDSVSTNSAAWNWIRQSPSRGLEWLGRIYYRSQWLNDYAVSVKSRITINPDTSKNQFSLQLNSVTPEDTAVYYCARQLTYPYTVYHKALDVWGQGTLVTVSS
VL: DIELTQPPSVSVSPGQTASITCSGDNLGDQYVSWYQQKPGQAPVLVIYDDTDRPSGIPERFSGSNSGNTATLTISGTQAEDEADYYCQSTDSKSVVFGGGTKLTVLG
notes: as for B4

Target: T1, Cynomolgus monkey cKIT D1-5
Assay: SET per the column head (Example 4 describes SPR, Biacore: antibody captured by anti-human Fc, cKIT ECD in solution)

Binder | Kd [pM]
B1 | 170
B2 | 10
B3 | 52
B4 | 180
B5 | 140

target: T4, Human cKIT D1-5 (extracellular domain) (human, UniProt P10721 26-524); assay: as above
T4 construct: also called human cKIT ECD; full-length cKIT ECD
T4 sequence (P10721 other isoform, or with tags, fused parts or gaps): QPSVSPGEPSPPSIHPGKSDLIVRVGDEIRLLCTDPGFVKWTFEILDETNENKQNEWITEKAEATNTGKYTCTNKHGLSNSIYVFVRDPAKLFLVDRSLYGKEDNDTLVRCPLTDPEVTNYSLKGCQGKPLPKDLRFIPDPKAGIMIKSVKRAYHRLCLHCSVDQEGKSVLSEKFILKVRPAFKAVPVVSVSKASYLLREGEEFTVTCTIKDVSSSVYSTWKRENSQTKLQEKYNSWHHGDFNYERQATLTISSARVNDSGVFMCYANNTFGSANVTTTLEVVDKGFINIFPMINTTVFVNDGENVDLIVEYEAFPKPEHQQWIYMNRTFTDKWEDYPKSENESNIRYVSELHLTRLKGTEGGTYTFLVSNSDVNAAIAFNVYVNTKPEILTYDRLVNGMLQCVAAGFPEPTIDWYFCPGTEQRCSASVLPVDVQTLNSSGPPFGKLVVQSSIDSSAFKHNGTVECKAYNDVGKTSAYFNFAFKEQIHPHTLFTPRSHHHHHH

Binder | Kd [pM]
B1 | 94
B2 | 7
B4 | 110
B5 | 2400

Target: T2, Rat cKIT D1-5, C-terminal mFc
Assay: reactivity to rat cKIT (method not given; Example 4 describes SPR)

Binder | binding result
B1 | no binding
B2 | no binding
B3 | no binding
B4 | binds
B5 | binds

target: T3, Mouse cKIT ECD, C-terminal 6x His (Sino …); assay: reactivity to mouse cKIT (method not given; Example 4 describes SPR)

Binder | binding result
B1 | no binding
B2 | no binding
B3 | no binding
